This series is described as follows: soluble on expression in E. coli; label from the status in PepcDB or PDB records.
As to “MKVSILDYGVIDKEKTPQEALLETRCLAQVADKLGFHRFWVAEHHNIYAFAISSPELLMMHLADHTKQIRIGSGGIMPLHYSSFKIAEWIMTLEALHPNRIDLGIGNSLGTTLVQRALSSIHCKDSYSQVVTELYQYLNPDHLSPLPIFVNPRGNTYPQIWTLSNSLETAELAGQLGLGYTFGIFPYIPKDPITEAKRVSAHYRKAFRPSKLLKIPKLILAVFIVLSDTDEKAEALAKPLDIWMLGQQDFNEFKTYPDVEEARNYHLTEKQREAIAANRSRMVIGSPHTVKKQLDRLIEACQADELLAIPLVPEFANRQRTLELLADLYVTI”, the “soluble on expression in E. coli” value is recorded as “not soluble”.
With “MKVTITANAPLSAGAMAVKKEAENANVFAALLAHKQQELLPAGAETSLFQEESSKNKEPDWQNGGMETGAAGQPSSAEKKPAQIESLWLAPSIMTALAVAPISAAAGAPLLEADQQAEGKTSDHWTFPFVGAMNGEETIAAQPAADEAGFERAFITDGRKSGHIDAESGSPSSGKTGMFPPLLSDGDQRPFHEQGGNRTVVALPNEASPVRPAGEKDVSLPKRGDKGHGGEATPSFTTPPALLSPSSSSVGLVGEMPASAGGSVADQVAHALRSARWMKLPNGVMQLVIRLHPEHLGTVTVKMTEEGGKLAAKLLVANDAVKELLYAHLPQLAQQLDASSITVEKWTVWSDYDSPAMPPYSGNRQGGQQQGESRQKQKREPSSSFPFALDGIEADA” the entry was “not soluble”.
With “MKVTVHAKNIELTNALKDCVEKKISKLSKYFEPGVEAKATLSVEKNKQIVEIMIPFNGILLRGEESTDDMYKSIDLVEEKIERQIRKQKTRLSKKNRYDSLRFAHIDPIEDMKEEKEAKIVKTKRFDVKPMGAEEAVLQMELIGHDFFVFQDPETNQLNVVYKRKDGNYGLIEPGLGEELEHHHHHH”, the “soluble on expression in E. coli” value is given as “soluble”.
With “MKVWITGAGGMMGSHLAEMLLAAGHDVYATYCRPTIDPSDLQFNGAEVDITDWCSVYDSIATFRPDAVFHLAAQSYPAVSWARPVETLTTNMVGTAIVFEALRRVRPHAKIIVAGSSAEYGFVDPSEVPINERRELRPLHPYGVSKAATDMLAYQYHKSYGMHTVVARIFNCTGPRKVGDALSDFVRRCTWLEHHPEQSAIRVGNLKTKRTIVDVRDLNRALMLMLDKGEAGADYNVGGSIAYEMGDVLKQVIAACKRDDIVPEVDPALLRPTDEKIIYGDCSKLAAITGWQQEICLTQTIADMFDYWRSKSESALMV” the entry was “not soluble”; with “MKWDEIGKNIAKEIEKEILPYFGRKDKSYVVGTSPSGDETEIFDKISEDIALKYLKSLNVNIVSEELGVIDNSSEWTVVIDPIDGSFNFINGIPFFAFCFGVFKNNEPYYGLTYEFLTKSFYEAYKGKGAYLNGRKIKVKDFNPNNIVISYYPSKKIDLEKLRNKVKRVRIFGAFGLEMCYVAKGTLDAVFDVRPKVRAVDIASSYIICKEAGALITDENGDELKFDLNATDRLNIIVANSKEMLDIILDLL”, “soluble”.
With “MKWHGLPACDSNPNSTTEFCRTRRPTKTMNSPATQTATPTNVDIASIVEQVLRRLRDQTNTNGSTSKPATHAPSAHVLSDKVISVDVIRGIPSGVTQVQLSGGIVTPAARDEMRARGISLAGAESTSAAAIKPASNSGKRFIQLHTDTSSKSIRDALARQLALRGVDHCPRAHRSVIVTKHPATALLGRIQSGARAVLITRLEDIPRFASEIDADTFVLDMQRFNLVALVNAATSIAQLSTSSTSQEAT” the entry was “not soluble”; with “MKYAVLIGDGMADYPIEELGSRTILQAARTPAMDSIAARGKTGLAKTVPEGFPPGSDVANMSIFGYDPAIYYSGRAPLEAASMGVALAADDVAFRCNLITIENGKIKDYSAGHISSDEAEILIDTLDSELRTEKVRFYPGISYRHLIVAGNDLGAETECTPPHDITGERKDDYLPRGKDGEFFSGLIEASTVVLELHPVNLKRVQEGKNPANSIWVWGQGYAPKFKTFQELYGKSGAIISAVDLLKGIGIYAGLDVIEVPGATGYLDTNYEGKASAAIEALKTRDLVFVHVEAPDEAGHEGSLEKKMKAIEDFDSRIVSPILKHAEASDETFTILVLPDHPTPISVKTHTRDPIPFAIYRTDAADPDGVEYFDEESVKNGSMGLVKASDLIGMLVKVLEHHHHHH”, “not soluble”.
Consider “MKYCDFNGCHNKISKGRYCEEHKRNKPRKKKDKKNIYHHENKPFYRTDAWKFVRSKVYERENGCCQRCGRFVFGRRAHVHHVIPIKEDPILKLEENNLRLLCPVCHTIEENEDKPKKVFPSYFGSPPIKNLEHHHHHH”, for which the “soluble on expression in E. coli” value is “soluble”.
The entry for “MKYGPSKDQIKQMAEEVREAAIRVKGEKELRMCPKTGHGSEWAGQLAVDANGAMNTYQPEGKYGDYGIGEDNRYLGTAKDWATLESGYQWIPGEFERYLMPEPHDFDALVDSAQKLTKDFVNVGQAKDPANVPAGTPTSVAPGTSAVDQPIRLSMGFTSDWSGHFADGFQRYLSEIPDVTRRQAVVAETLYEAAVAARDIYGAGREELGNIAKNAKLAIEGVEAGKSTGGCAGSSMATGFALIAAAATVAAGVSTLPISGPAVISGAMAAGNWTIVVGISSAIAAGSPLIPAPEKIELLASDVDGVIEKMKEALTKREKTVTDSEEAFAKKLGANSEMVEKNKVTGKDGGKSQDNAFFPRRPAMLDMSTDLKDLKDPATGFTHPVAAS” is “not soluble”.
On to “MKYKSVFDIIGPVMVGPSSSHTAGAVRIGLVARKLFGRKPTWARISFYGSFAETYRGHGTDVAIVAGLLGFDTFDERLPNALEIAQAEGVDVSFSAEEAIPHHPNTARLRIGDDEGELELVGISIGGGKIEIVELNGFALKLSGHHPALLIMHNDRYGTIGAVASVLAKRKINIGHMEVSRKEKGKEALMAIEVDQPLTDDLIQELEQLPNIIQVAKLAD”, for which the “soluble on expression in E. coli” value is on record as “not soluble”.
For the sequence “MKYRVETNPFSKDRYNPEQLEMFKNRQLSKDKAEVFFTRLYNQHIAWVIIANVMTEYVIKFRKSATSFEEAWDALDYQRTTEIVFRAVNGLPCSEKDSGELETYLSEEQHEKH”, the “soluble on expression in E. coli” value is “not soluble”.
On to “MKYWLYTSLFLALIFSFRSYANSDIWILIDTLEQRLSVMRGDKAQLAFNNIAIGRYGASSSRMKGDNQTPLGSFQISWIKQHHRYYRFFGVDFPNQEAADLALAEKRISRQAWLSITKAIESSRLPPQDTPLGGYIGIHGIGRGDRTVHARFNWTNGCVALTNAQIDELSSWIKIGTKVVIR”, for which the “soluble on expression in E. coli” value is “not soluble”.
With “MLCIDSSRDLTYGVVMTFKVMEFQKGRLQNLYWKRDVCASCKGNQNFVCLKKQVCAIRTPSCKGRGGSVGCSLGIQLAFSGTDKHLAVLNSWYEVDNLKQYSLYGLYSNLKSSLTNQLNNFF” the entry was “soluble”; with “MLEACTKCGTCAEACTMYLGSGRKKIYSPVYRSDMLRKIYKKHFTLTGKLFGPLIGAKDPTEDDINALAESAYRCTVCRRCALACPFGLDNGLITRETRKIFADLGILEHHHHHH”, “not soluble”.
With “MLEFFDEDFDNMALVEGALELNKSVNPETNVHWAKQELERLYQEAEATLIHETDEEQRFDSFLRLFFHEWGFKGDDQEYFISDNSFIDKVLERKKGIPVSLGAILLYLGNRLGFPMKGVTFPTQFLIKVDWMHKTPDYINPFNGEYVGEKILQAWLIGQEGPLAQLKPEHFDEADNPTVIGRWLALIKSAMLREERYTLALRCTNLALTFVPDDPYEIRDRGFIFQQLECHQVAVSDFQYFIDQCPDDPASELLKSQVNAMSEKHVTLHLEHHHHHH”, the “soluble on expression in E. coli” value is recorded as “soluble”.
The entry for “MLEGAKFNVLAVGNHHNNDNNYYAFTQEFYQKLNEGSNMSMESMQTSNAGGSVSMSVDNSSVGSSDALIGHPGLKPVRHYSLSVGQSVFRPGRVTHALNDDALAQALMDTRYPTEGLTNYDEWTIDLRKLNMGPAFAQGAFGKLYKGTYNGEDVAIKILERPENSPEKAQFMEQQFQQEVSMLANLKHPNIVRFIGACRKPMVWCIVTEYAKGGSVRQFLTRRQNRAVPLKLAVKQALDVARGMAYVHGRNFIHRDLKSDNLLISADKSIKIADFGVARIEVQTEGMTPETGTYRWMAPEMIQHRAYNQKVDVYSFGIVLWELITGLLPFQNMTAVQAAFAVVNRGVRPTVPNDCLPVLSDIMTRCWDANPEVRPCFVEVVKLLEAAETEIMTTARKARFRCCLSQPMTID” is “not soluble”; for “MLEQILLGTYTRRASQGIYKIALDTTQGRLTEATLLLEETSPTYLALSQKGELFSVTSVDGEGGTAAYQPEMDHFNLLNKVTEEGAPPCYVAVDENRQLVYAANYHQGIVHVYRILEDGSLEDADKVIHTEPTGPHENQNNAHVHYTDLTPDQRLVVCDLGTDRVYTYNVSLDGKLSEIAQFVTEPGTGPRHLVFHPTKSLAYLFGELDSTVSVLSYDETDGSFTELQKVSTLPADYDAFNGGAAIRISSDGRFLYASNRGHNSIAVYAVSENGEAIERIQLISTEGDIPRDFDLDPSEDFIVVANQDSDNLTLYRRNQETGLLEMIQKDVAVPECVCVLFVLEHHHHHH” it is “soluble”; for “MLETEHANTEVHELCRQMIARIEKYGTLEGFSDSDILEVLKTIKEILEPLPCLIEIIAPVVVFGDIHGQLGDLLQFTNEVGRPPDFQYLFLGDYVDRGPNSLEVTVWLFCMKILFSKKVHLLRGNHEVRRVNTMYGFKEEMMRKRNSHLWKVFNDVFAELSICASINRKILCMHGGISPKIESWDSLTGMTKPRVHGDCEHGLIVDLIWSDPNRKDDTIQFNKMRGISTLFGKSVVDNLCTTLAIDLIIRAHEMKEVYVFHLYLSSMKGHTFEFDNRLLTVFSAPYYSGHNSNLGSVATISKSLKLRIVTLKPNKGYDRSKLDKRTLHDFEKNFQPLDENPRKNISCQFNVPPNGQKMSPFLGEYSMFAHETQFCKKDNETPVKKPYSSNQDEDHSVLDMIRKTQKGYGVEVSLKDKVMSLESIRKKLGMTTSTTPPPPRTPSPDAPLAQSPPIPRSPPSSTENA” it is “not soluble”.
The entry for “MLEVKELVKTFGDFKAVDHVSFTIPDGKILGLIGQNGAGKTTTFRLILNFLTQDSGSVLWNGQPLNEKEYNIIGYLPEERGLYPKITIEDQLIYFASLRGKTKKEIEPKIDFWMEKFQVKGKKTDKVKSLSKGNQQKVQLIATLIHEPKLIILDEPFSGLDPVNAELLKDGIIELKNQGSCVIFSSHNMDNVEKICDHLVMLKNGRMVLDGQVHEIRQQFGRTKLFLESPLSVEEVAATAGVKEAHLRQDGVLEATLENAEVGKVLFDKATANGYIPMFNQQPPTLEEIFKMKVGGQDE” is “not soluble”.
Turning to “MLFDMLHSFHESRVIKSHHNLTQQPVSTFLLMGLDNSGKRKLSTTRTDGMMVVIVNHKTKTMTLCSLLRDTFVKIHSQQYHGYQRIESAYTYGGDAAAIATVEHYLNLPIDYYLTVNWDGFIRAIDDIGPVEVNVDRDFIGQDYWGKPEKFKAGLQSMSGARALAYARERHIDNDQHRGFRQQAVFYAMVKRLNQEGLSSKGAKVVGDLKDQMRTNLTNHDMLTLFKSRKTFKRYRVKRLTFQWRTFDVAGRSMVEVYPDSRVQVSRQLQAAAGLRPDLPSQTFTTNGHYRYASDESVESKADEAKADTHYGQSHVYVGHAGNTTIGKLPAAVPLKNGFRVSDRTETMYTVHLEHHHHHH”, the “soluble on expression in E. coli” value was “soluble”.
With “MLFFSSAMSKHKLTFTKLSDCMKYLDLAATWAEEEWGYIRNKGLEFRKKILSDLKEHTYIGTFNGQPIAMFVLFDKEMSPEFNHGRFKPPVVNELMYVYIDKPYRGLGFGKQIIDEAKQLASDSKSEYIMLDTLKPGLNRFYEKSGAKVIAENQLFSHPTDVLTIKI” the entry was “not soluble”; with “MLFMIEVEIFPHRYLKASTTEKFLNKIYDLKTVERVVIHGQPLPKVITYGPARGLPVNHTERKIIHVKGVPVELTVMAGRFWITLSDDSELDKLDEICKEMFPFGYNLRVGKFLKDRPTVTDYIKYGEDGVFLINEMDRRLIGMVDPRSRMANLEHHHHHH”, “not soluble”.
